Here are results for six molecules from patent US20230272114A1 (published 2023).

The target of one assay is S267E. As to the kind of experiment: Biacore SPR.
For assay [1], the target named is T1, recombinant human FcγRIIb protein (R&D Systems) (human, UniProt P31994 46-217).
T1 chain: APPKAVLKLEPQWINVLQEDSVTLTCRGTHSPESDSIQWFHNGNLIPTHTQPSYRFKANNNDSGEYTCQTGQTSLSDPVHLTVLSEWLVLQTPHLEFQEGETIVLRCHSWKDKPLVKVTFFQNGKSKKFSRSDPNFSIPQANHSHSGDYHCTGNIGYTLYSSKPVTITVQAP
As to the kind of experiment: Biacore SPR.

The next assay has as its target T2, Fc region of IgE (UniProt P01854 105-428).
T2 chain: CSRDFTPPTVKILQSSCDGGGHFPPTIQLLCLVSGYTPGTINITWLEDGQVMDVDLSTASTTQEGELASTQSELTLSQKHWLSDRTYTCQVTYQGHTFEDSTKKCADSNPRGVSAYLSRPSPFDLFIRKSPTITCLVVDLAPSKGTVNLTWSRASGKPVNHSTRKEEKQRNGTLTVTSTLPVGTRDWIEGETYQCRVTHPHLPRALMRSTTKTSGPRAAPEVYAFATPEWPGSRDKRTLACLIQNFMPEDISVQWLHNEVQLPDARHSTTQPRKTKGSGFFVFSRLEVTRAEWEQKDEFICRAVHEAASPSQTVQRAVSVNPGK
Briefly: Biacore.

B1: FcγRI (receptor)
chain: QVDTTKAVITLQPPWVSVFQEETVTLHCEVLHLPGSSSTQWFLNGTATQTSTPSYRITSASVNDSGEYRCQRGLSGRSDPIQLEIHRGWLLLQVSSRVFTEGEPLALRCHAWKDKLVYNVLYYRNGKAFKFFHWNSNLTILKTNISHNGTYHCSGMGKHRYTSAGISVTVKELFPAPVLNASVTSPLLEGNLVTLSCETKLLLQRPGLQLYFSFYMGSKTLRGRNTSSEYQILTARREDSGLYWCEAATEDGNVLKRSPELELQVLGLQLPTP
Consider B1, for which, in the assay with S267E, the dissociation constant (Kd) was determined as 0.26 nM.

B2: FcγRIIb (receptor)
chain: APPKAVLKLEPQWINVLQEDSVTLTCRGTHSPESDSIQWFHNGNLIPTHTQPSYRFKANNNDSGEYTCQTGQTSLSDPVHLTVLSEWLVLQTPHLEFQEGETIVLRCHSWKDKPLVKVTFFQNGKSKKFSRSDPNFSIPQANHSHSGDYHCTGNIGYTLYSSKPVTITVQAP
In the assay with S267E, B2 came in with a Kd of 60 nM.

B3: H131 FcγRIIa (receptor)
chain: QAAAPPKAVLKLEPPWINVLQEDSVTLTCQGARSPESDSIQWFHNGNLIPTHTQPSYRFKANNNDSGEYTCQTGQTSLSDPVHLTVLSEWLVLQTPHLEFQEGETIMLRCHSWKDKPLVKVTFFQNGKSQKFSHLDPTFSIPQANHSHSGDYHCTGNIGYTLFSSKPVTITVQVPSMGSSSPMGHHHHHH
As for B3, the affinity with S267E, expressed as Kd, was 960 nM.

B4: MaE11_H1L1_IgG1_S267E/L328F (antibody)
chain 1: not shown
chain 2: DIQLTQSPSSLSASVGDRVTITCRASQSVDYDGDSYMNWYQQKPGQPPKLLIYAASYLGSEIPARFSGSGSGTDFTLTISSLQPEDFATYYCQQSHEDPYTFGAGTKLEIKRTVAAPSVFIFPPSDEQLKSGTASVVCLLNNFYPREAKVQWKVDNALQSGNSQESVTEQDSKDSTYSLSSTLTLSKADYEKHKVYACEVTHQGLSSPVTKSFNRGEC
For B4, the Kd in assay [1] came to 5.6 nM; with Fc region of IgE, 0.063 nM.

B5: MaE11_H1L1_IgG1_WT (antibody)
chain 1: not shown
chain 2: DIQLTQSPSSLSASVGDRVTITCRASQSVDYDGDSYMNWYQQKPGQPPKLLIYAASYLGSEIPARFSGSGSGTDFTLTISSLQPEDFATYYCQQSHEDPYTFGAGTKLEIKRTVAAPSVFIFPPSDEQLKSGTASVVCLLNNFYPREAKVQWKVDNALQSGNSQESVTEQDSKDSTYSLSSTLTLSKADYEKHKVYACEVTHQGLSSPVTKSFNRGEC
On to B5, for which the Kd worked out at 2000 nM in assay [1] and 0.061 nM in the assay with Fc region of IgE.

B6: MaE11_H1L1_IgG1_G236R/L328R (antibody)
chain 1: not shown
chain 2: DIQLTQSPSSLSASVGDRVTITCRASQSVDYDGDSYMNWYQQKPGQPPKLLIYAASYLGSEIPARFSGSGSGTDFTLTISSLQPEDFATYYCQQSHEDPYTFGAGTKLEIKRTVAAPSVFIFPPSDEQLKSGTASVVCLLNNFYPREAKVQWKVDNALQSGNSQESVTEQDSKDSTYSLSSTLTLSKADYEKHKVYACEVTHQGLSSPVTKSFNRGEC
Consider B6, for which the affinity with Fc region of IgE, expressed as Kd, was 0.064 nM.
